This note sets out measurements from patent publication US20140148361, “Generation and Expression of Engineered I-ONUI Endonuclease and Its Homologues and Uses Thereof” (published 2014).

In one data set the target is T1, I-OnuI (Ophiostoma novo-ulmi).
T1 chain: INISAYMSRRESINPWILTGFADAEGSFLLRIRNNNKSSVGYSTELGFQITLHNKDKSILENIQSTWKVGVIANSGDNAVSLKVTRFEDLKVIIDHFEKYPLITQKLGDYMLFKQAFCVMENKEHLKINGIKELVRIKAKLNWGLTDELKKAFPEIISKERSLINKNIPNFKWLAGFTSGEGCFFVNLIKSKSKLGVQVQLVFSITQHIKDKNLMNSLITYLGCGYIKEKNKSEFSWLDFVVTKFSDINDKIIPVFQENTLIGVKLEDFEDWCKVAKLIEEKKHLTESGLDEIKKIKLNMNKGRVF
The experiment in a line: structure; co-crystal structure at 2.4 A (PDB 3QQY). Particulars: tags: GST fusion (pGEX-6P-3), tag removed by PreScission protease; label: 32P (radiolabeled) in EMSA and cleavage. On the technique in general: Mobility shift assays separate free from complexed probe on a gel.

Another data set deals with T2, I-LtrI (Leptographium truncatum, UniProt C7SWF3 C7SWF3:407-712).
T2 sequence: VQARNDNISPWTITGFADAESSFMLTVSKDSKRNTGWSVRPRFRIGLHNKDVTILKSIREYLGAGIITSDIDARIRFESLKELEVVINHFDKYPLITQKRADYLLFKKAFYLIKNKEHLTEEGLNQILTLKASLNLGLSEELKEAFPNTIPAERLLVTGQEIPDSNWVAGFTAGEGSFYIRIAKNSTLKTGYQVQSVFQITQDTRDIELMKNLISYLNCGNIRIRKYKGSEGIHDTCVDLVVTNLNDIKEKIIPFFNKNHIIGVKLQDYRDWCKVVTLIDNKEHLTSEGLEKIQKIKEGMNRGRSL
Description: structure; co-crystal structure at 2.7 A (PDB 3R7P). The following applies: overhang ends. On the procedure:
To obtain I-LtrI-DNA co-crystals, the DNA oligonucleotides (5′-[…]-3′ (SEQ ID NO: 119) and 5′-[…]-3′ (SEQ ID NO:120)) were purchased from Integrated DNA Technologies ([…], standard desalting purification). The oligonucleotides were dissolved in TE buffer (10 mM Tris-HCl (pH 8.0) and 1 mM EDTA), and the complementary DNA strands were annealed by incubation at 95° C. for 10 min and slow cooling to 4° C. over a six hour period. […] The protein-DNA drops were mixed in a 1:1 volume ratio with a reservoir solution containing 100 mM Bis-Tris (pH 6.5), 200 mM magnesium chloride, and 20% (v/v) polyethylene glycol 3500 and equilibrated at 22° C. The crystals diffracted up to approximately 2.7 Å resolution at the ALS beamline 5.0.1. The data set was processed using HKL2000 package. The polyalanine model of I-OnuI/DNA complex (PDB ID: 3QQY) was used as a search model for molecular replacement. One copy of the search model was found and the structure was refined using REFMAC5. The final model was deposited in RCSB Protein Data Bank with ID code 3R7P.

B1: I-OnuI wild-type target site (RPS3) (dsDNA)
DNA 1: TTTCCACTTATTCAACCTTTTA
DNA 2: TAAAAGGTTGAATAAGTGGAAA
Regarding B1, in the data set with I-OnuI, the binding result is on record as “binds”.

B2: I-LtrI co-crystal duplex (dsDNA)
DNA 1: GGTCTAAACGTCGTATAGGAGCATTTGG
DNA 2: CAAATGCTCCTATACGACGTTTAGACCC
B2: in the data set with I-LtrI, the binding result is reported as “binds”.
